{"source": "paper PMC10732415", "about": "“Bacteriophage-encoded 24B_1 molecule resembles herpesviral microRNAs and plays a crucial role in the development of both the virus and its host”", "target": "Hfq (Escherichia coli, UniProt P0A6X3 1-102)", "sequence (P0A6X3 whole entry)": "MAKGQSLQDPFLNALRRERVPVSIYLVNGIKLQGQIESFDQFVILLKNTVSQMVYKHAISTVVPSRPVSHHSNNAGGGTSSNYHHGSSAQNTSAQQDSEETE", "assay": "EMSA; 1 mM Mg2+; Hfq up to 100 nM", "details": "protein: recombinant; chain copies: 6; label: 32P; predicted 4-bp helix"}
{"binder": "UAACGUUAAGUUGACUCGGG (ssRNA)", "note": "[mature 24B_1 RNA, 20 nt]", "values": [{"measurement": "binding result", "value": "no binding"}]}
